Assay results as given in US20240261333A1, “NOVEL TARGETS FOR ENHANCING ANTI-TUMOR IMMUNITY” (THE BROAD INSTITUTE, INC., priority 2021, published 2024).

Columns and labels:
DEFA3 = DEFA3 (UniProt P59666); assay: co-IP, IgG control, C-FLAG B3GNT2 cell lysate, mass spectrometry
EMD = EMD (UniProt P50402); assay: as above
HNRNPU = HNRNPU (UniProt Q00839); assay: as above
HSPB1 = HSPB1 (UniProt P04792); assay: as above
ITGB3 = ITGB3 (UniProt P05106); assay: as above
RPL27A = RPL27A (UniProt P46776); assay: as above
RPS19 = RPS19 (UniProt P39019); assay: as above
ATAD3A (human) = ATAD3A (human) (UniProt Q9NVI7); assay: anti-FLAG co-IP from lysate of C-FLAG B3GNT2 cells, mass spectrometry
PGAM5 (human) = PGAM5 (human) (UniProt Q96HS1); assay: as above
STAU1 (human) = STAU1 (human) (UniProt O95793); assay: as above
COPA (human) = COPA (human) (UniProt P53621); assay: co-IP with anti-FLAG, N-FLAG B3GNT2, mass spectrometry
CPT1A (human) = CPT1A (human) (UniProt P50416); assay: as above
DDX1 (human) = DDX1 (human) (UniProt Q92499); assay: as above
EMILIN1 (human) = EMILIN1 (human) (UniProt Q9Y6C2); assay: as above
GSN (human) = GSN (human) (UniProt P06396); assay: as above
HBB (human) = HBB (human) (UniProt P68871); assay: as above
HNRNPH1 (human) = HNRNPH1 (human) (UniProt P31943); assay: as above
IL13RA2 (human) = IL13RA2 (human) (UniProt Q14627); assay: as above
KCTD5 (human) = KCTD5 (human) (UniProt Q9NXV2); assay: as above
LCN1 (human) = LCN1 (human) (UniProt P31025); assay: as above
LUC7L3 (human) = LUC7L3 (human) (UniProt O95232); assay: as above
MAP4 (human) = MAP4 (human) (UniProt P27816); assay: as above
MMP14 (human) = MMP14 (human) (UniProt P50281); assay: as above
MMS19 (human) = MMS19 (human) (UniProt Q96T76); assay: as above
[1] = target: P0AA25.2 [thioredoxin: P0AA25]; assay: as above
PPFIBP1 (human) = PPFIBP1 (human) (UniProt Q86W92); assay: as above
PSMA3 (human) = PSMA3 (human) (UniProt P25788); assay: as above
PSMB5 (human) = PSMB5 (human) (UniProt P28074); assay: as above
RACK1 (human) = RACK1 (human) (UniProt P63244); assay: as above
RHOT2 (human) = RHOT2 (human) (UniProt Q8IXI1); assay: as above
RPL17 (human) = RPL17 (human) (UniProt P18621); assay: as above
RPL28 (human) = RPL28 (human) (UniProt P46779); assay: as above
RPL7 (human) = RPL7 (human) (UniProt P18124); assay: as above
RPL8 (human) = RPL8 (human) (UniProt P62917); assay: as above
RPS27A (human) = RPS27A (human) (UniProt P62979); assay: as above
SERPINB3 (human) = SERPINB3 (human) (UniProt P29508); assay: as above
SYNPO (human) = SYNPO (human) (UniProt Q8N3V7); assay: as above
TELO2 (human) = TELO2 (human) (UniProt Q9Y4R8); assay: as above
XPO1 (human) = XPO1 (human) (UniProt O14980); assay: as above
XPOT (human) = XPOT (human) (UniProt O43592); assay: as above
XPOT (human), sequence (O43592 whole entry): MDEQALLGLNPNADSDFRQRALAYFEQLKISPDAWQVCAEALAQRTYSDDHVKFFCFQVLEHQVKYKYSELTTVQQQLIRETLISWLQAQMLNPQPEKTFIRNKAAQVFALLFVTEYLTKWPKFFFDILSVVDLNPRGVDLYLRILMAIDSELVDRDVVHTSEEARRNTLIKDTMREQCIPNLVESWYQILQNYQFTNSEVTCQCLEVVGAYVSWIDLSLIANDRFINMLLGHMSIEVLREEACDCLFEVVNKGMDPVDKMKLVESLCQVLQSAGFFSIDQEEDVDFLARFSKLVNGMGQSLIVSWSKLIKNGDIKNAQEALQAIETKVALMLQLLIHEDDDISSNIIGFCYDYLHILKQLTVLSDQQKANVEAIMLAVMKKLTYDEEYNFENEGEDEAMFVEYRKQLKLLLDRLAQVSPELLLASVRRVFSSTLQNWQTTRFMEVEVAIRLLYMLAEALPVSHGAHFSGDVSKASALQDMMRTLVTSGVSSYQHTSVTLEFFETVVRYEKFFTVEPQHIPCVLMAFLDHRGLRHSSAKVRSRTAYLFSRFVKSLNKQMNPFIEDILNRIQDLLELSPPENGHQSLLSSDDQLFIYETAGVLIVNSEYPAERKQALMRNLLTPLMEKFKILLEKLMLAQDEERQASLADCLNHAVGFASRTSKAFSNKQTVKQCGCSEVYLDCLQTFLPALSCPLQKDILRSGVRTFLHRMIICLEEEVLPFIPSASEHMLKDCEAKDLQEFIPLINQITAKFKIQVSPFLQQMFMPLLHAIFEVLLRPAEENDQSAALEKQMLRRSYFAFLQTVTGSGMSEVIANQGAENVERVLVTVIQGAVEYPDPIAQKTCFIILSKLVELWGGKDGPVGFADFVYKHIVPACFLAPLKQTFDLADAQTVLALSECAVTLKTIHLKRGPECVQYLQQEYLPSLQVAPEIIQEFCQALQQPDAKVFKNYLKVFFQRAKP

MMS19 (human), sequence (Q96T76 other isoform, or with tags, fused parts or gaps limits assumed): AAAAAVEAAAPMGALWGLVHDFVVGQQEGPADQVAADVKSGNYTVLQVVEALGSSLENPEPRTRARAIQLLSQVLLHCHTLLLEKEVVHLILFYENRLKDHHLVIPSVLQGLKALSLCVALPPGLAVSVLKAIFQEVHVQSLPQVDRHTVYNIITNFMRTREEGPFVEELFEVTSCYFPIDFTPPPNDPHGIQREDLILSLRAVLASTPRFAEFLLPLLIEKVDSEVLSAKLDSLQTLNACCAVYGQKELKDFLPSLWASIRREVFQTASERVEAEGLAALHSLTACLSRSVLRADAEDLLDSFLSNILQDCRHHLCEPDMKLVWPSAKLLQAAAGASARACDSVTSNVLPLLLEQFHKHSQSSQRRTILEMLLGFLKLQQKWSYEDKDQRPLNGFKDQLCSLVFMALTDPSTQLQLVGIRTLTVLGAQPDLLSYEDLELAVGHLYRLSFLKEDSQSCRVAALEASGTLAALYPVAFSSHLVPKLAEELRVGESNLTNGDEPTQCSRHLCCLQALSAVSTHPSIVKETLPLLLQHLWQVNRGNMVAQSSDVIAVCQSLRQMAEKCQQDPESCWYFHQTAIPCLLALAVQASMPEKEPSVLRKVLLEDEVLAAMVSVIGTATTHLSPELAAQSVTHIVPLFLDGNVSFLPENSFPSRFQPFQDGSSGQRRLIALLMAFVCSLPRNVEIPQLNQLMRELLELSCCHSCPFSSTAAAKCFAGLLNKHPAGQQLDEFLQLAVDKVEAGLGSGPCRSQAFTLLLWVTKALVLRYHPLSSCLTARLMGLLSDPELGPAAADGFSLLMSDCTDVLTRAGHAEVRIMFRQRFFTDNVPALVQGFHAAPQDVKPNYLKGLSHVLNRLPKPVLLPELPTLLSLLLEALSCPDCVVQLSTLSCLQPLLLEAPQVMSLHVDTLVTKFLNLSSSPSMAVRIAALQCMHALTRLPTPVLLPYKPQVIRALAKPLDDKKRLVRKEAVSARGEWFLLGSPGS
SERPINB3 (human), sequence (P29508 whole entry): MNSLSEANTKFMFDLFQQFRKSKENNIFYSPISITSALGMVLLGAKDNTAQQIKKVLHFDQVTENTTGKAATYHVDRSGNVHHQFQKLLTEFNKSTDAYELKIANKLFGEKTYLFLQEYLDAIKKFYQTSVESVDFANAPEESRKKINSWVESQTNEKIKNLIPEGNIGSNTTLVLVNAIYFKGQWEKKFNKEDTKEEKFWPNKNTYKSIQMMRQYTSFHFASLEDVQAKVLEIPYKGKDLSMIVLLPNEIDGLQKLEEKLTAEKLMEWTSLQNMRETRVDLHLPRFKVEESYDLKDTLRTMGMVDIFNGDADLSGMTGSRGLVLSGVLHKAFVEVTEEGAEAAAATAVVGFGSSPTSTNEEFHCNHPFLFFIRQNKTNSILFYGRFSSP
ATAD3A (human), sequence (Q9NVI7 2-586 limits assumed): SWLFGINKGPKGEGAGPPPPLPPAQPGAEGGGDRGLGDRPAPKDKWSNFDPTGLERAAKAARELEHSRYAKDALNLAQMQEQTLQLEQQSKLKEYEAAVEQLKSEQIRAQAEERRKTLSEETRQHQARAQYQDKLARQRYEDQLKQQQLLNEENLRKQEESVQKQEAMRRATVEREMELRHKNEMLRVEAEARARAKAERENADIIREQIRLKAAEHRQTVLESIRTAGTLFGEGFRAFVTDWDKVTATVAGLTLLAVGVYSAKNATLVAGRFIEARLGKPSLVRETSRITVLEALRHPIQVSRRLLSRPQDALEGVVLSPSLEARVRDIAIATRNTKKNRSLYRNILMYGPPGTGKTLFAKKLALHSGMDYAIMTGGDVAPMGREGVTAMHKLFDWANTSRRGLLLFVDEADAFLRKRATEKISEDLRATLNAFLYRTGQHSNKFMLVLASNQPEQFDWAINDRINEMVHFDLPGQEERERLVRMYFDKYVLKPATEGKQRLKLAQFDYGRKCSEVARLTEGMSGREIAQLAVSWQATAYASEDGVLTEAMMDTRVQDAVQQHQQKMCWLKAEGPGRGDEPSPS
HBB (human), sequence (P68871 2-147 limits assumed): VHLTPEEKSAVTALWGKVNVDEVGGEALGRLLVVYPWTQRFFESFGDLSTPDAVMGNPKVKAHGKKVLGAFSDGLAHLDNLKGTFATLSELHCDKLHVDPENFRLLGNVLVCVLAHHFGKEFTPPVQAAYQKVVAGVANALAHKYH
HSPB1, sequence (P04792 whole entry): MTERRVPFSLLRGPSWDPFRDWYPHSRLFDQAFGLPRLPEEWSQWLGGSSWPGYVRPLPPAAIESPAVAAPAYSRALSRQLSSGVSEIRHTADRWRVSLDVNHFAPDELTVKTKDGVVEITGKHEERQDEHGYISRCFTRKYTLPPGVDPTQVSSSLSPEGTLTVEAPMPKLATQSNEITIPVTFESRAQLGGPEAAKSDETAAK
CPT1A (human), sequence (P50416 other isoform, or with tags, fused parts or gaps limits assumed): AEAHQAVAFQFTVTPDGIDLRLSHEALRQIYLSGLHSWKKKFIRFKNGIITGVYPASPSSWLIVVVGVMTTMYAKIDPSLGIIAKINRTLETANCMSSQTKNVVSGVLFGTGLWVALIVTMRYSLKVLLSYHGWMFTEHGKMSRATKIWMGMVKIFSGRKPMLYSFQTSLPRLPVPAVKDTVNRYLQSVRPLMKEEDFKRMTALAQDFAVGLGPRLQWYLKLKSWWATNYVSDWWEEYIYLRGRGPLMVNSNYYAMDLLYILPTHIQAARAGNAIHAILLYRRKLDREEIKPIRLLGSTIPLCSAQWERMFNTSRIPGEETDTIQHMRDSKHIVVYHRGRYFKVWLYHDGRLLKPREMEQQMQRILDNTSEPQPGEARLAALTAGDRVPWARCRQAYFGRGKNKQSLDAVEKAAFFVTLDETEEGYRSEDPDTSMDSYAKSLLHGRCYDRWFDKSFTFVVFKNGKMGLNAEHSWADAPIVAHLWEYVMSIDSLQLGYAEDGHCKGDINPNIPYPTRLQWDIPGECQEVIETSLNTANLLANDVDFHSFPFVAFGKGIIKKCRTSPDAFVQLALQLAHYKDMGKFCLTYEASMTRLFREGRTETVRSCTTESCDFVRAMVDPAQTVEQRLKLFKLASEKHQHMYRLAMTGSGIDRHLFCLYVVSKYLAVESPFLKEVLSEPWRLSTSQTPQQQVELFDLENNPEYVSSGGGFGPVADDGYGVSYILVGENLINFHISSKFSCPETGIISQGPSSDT
EMILIN1 (human), sequence (Q9Y6C2 22-1016 limits assumed): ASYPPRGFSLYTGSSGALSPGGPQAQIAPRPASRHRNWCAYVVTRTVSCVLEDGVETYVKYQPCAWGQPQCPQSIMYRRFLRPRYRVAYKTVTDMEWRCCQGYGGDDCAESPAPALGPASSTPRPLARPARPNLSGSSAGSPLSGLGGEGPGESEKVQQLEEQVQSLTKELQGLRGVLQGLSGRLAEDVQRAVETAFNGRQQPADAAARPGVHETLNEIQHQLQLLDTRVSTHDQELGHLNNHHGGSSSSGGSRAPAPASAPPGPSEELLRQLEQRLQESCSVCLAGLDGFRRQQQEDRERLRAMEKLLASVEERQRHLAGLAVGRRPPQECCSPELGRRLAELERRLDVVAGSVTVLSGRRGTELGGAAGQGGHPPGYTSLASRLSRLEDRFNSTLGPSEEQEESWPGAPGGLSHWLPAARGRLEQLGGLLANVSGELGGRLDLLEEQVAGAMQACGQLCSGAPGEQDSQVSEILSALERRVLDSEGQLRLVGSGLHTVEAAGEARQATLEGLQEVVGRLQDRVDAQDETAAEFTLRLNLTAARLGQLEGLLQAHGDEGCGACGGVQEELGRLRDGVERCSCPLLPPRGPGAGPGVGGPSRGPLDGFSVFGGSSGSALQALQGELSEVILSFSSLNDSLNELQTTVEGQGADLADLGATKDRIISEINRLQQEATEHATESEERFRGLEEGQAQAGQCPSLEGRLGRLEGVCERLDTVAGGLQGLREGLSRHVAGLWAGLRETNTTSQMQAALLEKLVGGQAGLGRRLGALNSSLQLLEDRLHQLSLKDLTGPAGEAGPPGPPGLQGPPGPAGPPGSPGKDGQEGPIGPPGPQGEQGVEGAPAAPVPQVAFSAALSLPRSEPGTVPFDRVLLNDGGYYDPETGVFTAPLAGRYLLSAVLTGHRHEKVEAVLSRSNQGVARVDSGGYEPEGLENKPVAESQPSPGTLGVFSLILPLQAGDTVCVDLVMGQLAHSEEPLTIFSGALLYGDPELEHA

Substance: IgG control (Millipore Sigma 12-371) (antibody)
- co-IP mass spectrometry count (DEFA3): 5
- co-IP mass spectrometry count (EMD): 2
- co-IP mass spectrometry count (HNRNPU): 0
- co-IP mass spectrometry count (HSPB1): 0
- co-IP mass spectrometry count (ITGB3): 0
- co-IP mass spectrometry count (RPL27A): 0
- co-IP mass spectrometry count (RPS19): 3

Substance: C-terminal FLAG tagged B3GNT2 (from UniProt Q9NY97 1-397) (enzyme)
- co-IP mass spectrometry count (ATAD3A (human)): 9
- co-IP mass spectrometry count (PGAM5 (human)): 5
- co-IP mass spectrometry count (STAU1 (human)): 6

Substance: N-terminal FLAG tagged B3GNT2 (from UniProt Q9NY97 1-397) (enzyme)
- co-IP/MS count, N-term FLAG (COPA (human)): 2
- co-IP/MS count, N-term FLAG (CPT1A (human)): 2
- co-IP mass spectrometry count (DDX1 (human)): 7
- co-IP mass spectrometry count (EMILIN1 (human)): 2
- co-IP mass spectrometry count (GSN (human)): 2
- co-IP/MS count, N-term FLAG (HBB (human)): 4
- co-IP/MS count, N-term FLAG (HNRNPH1 (human)): 11
- co-IP mass spectrometry count (IL13RA2 (human)): 3
- co-IP mass spectrometry count (KCTD5 (human)): 2
- co-IP mass spectrometry count (LCN1 (human)): 11
- co-IP/MS count, N-term FLAG (LUC7L3 (human)): 4
- co-IP mass spectrometry count (MAP4 (human)): 0
- co-IP/MS count, N-term FLAG (MMP14 (human)): 2
- co-IP/MS count, N-term FLAG (MMS19 (human)): 4
- co-IP/MS count, N-term FLAG [1]: 7
- co-IP mass spectrometry count (PPFIBP1 (human)): 2
- co-IP/MS count, N-term FLAG (PSMA3 (human)): 4
- co-IP/MS count, N-term FLAG (PSMB5 (human)): 4
- co-IP mass spectrometry count (RACK1 (human)): 2
- co-IP mass spectrometry count (RHOT2 (human)): 3
- co-IP/MS count, N-term FLAG (RPL17 (human)): 3
- co-IP mass spectrometry count (RPL28 (human)): 8
- co-IP mass spectrometry count (RPL7 (human)): 10
- co-IP mass spectrometry count (RPL8 (human)): 10
- co-IP mass spectrometry count (RPS27A (human)): 8
- co-IP mass spectrometry count (SERPINB3 (human)): 10
- co-IP mass spectrometry count (SYNPO (human)): 4
- co-IP mass spectrometry count (TELO2 (human)): 2
- co-IP/MS count, N-term FLAG (XPO1 (human)): 2
- co-IP/MS count, N-term FLAG (XPOT (human)): 2
